This note sets out measurements from paper PMC6623548, “Targeting Mannitol Metabolism as an Alternative Antimicrobial Strategy Based on the Structure-Function Study of Mannitol-1-Phosphate Dehydrogenase in Staphylococcus aureus” (mBio, 2019).

Data set [1] concerns the target T1, mannitol-1-phosphate dehydrogenase (SaM1PDH) (Staphylococcus aureus, UniProt Q2FEX4).
T1 construct: gene mtlD
The data set can be described thus: F6P reductase activity, NADH absorbance, Lineweaver-Burk kinetics. The format is biochemical.

The subject of data set [2] is O=P(O)(O)OC[C@@H](O)[C@@H](O)[C@H](O)[C@H](O)CO. The data set can be described thus: purified protein. Particulars: NAD+ active site; phosphate moiety at Arg287 and Arg294 (docking, supported by mutants).
For data set [3], the system named is O=C(CO)[C@@H](O)[C@H](O)[C@H](O)COP(=O)(O)O. The data set can be described thus: purified protein. To be noted: NADH active site; phosphate moiety at Arg287 and Arg294 (docking, supported by mutants).

In data set [1], `Cc1c(O)c(O)cc2c1CC=C1[C@@]2(C)CC[C@@]2(C)[C@@H]3C[C@](C)(C(=O)O)CC[C@]3(C)CC[C@]12C` [DHCL, dihydrocelastrol] came in with a Ki of 4 µM. As to “mannitol-1-phosphate dehydrogenase (SaM1PDH) (Staphylococcus aureus subsp. aureus USA300)”, the figures for the Km in data set [2] and in data set [3] were 188 µM and 88.6 µM, respectively.
